Data set [1] addresses T1, GST-LEC2-B3 (Arabidopsis thaliana, UniProt Q1PFR7).
T1 chain: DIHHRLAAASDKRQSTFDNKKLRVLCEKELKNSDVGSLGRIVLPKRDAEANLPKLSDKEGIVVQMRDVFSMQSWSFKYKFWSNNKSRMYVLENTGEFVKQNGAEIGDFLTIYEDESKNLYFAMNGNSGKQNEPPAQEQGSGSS
Put plainly: EMSA; BLI: Octet Qke, 1x Kinetics Buffer (ForteBio), pH 7.0, 0.05 uM biotinylated probe on streptavidin, temperature not stated; EMSA: MgCl2, 0.05% NP-40, 0.5 nM probe, 15 ul, room temperature 20 min, 6% gel in 0.5x TBE (rest of buffer not in material). To be noted: protein: recombinant; tags: GST (N-terminal, pGEX-2T); label: 5' biotin on strand 1 (strand 2 oligo also named 5-Biotin-probe); blunt. A general note: Mobility shift assays separate free from complexed probe on a gel.

Data set [2] has as its target T2, GST-FUS3-B3 (Arabidopsis thaliana, UniProt Q9LW31).
T2 chain: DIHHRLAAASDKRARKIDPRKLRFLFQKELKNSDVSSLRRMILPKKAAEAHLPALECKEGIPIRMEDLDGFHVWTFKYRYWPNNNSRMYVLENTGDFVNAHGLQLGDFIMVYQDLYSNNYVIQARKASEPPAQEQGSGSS
The description is as above. To be noted: protein: recombinant; tags: GST (N-terminal, pGEX-2T); label: 5' biotin on strand 1 (strand 2 oligo also named 5-Biotin-probe); blunt.

One may read the Kd as the constant that tells how readily two partners part at equilibrium.

B1: Sph2 probe (dsDNA)
DNA 1: CACGGATCATGCATGGACGACACGGATCATGCATGGACGACACG
DNA 2: CGTGTCGTCCATGCATGATCCGTGTCGTCCATGCATGATCCGTG
Regarding B1, the Kd was determined as 198 nM in data set [1] and 1.28 nM in data set [2].

The record behind these values is paper PMC8136769, “Structural variation affecting DNA backbone interactions underlies adaptation of B3 DNA binding domains to constraints imposed by protein architecture”.
